Measurements reported in patent US20070036810A1, “Cyclic amp response element activator proteins and uses related thereto” (priority 2003, published 2007).

Experiments:
[1] = target: T1, ATF2-GAL4 fusion molecule (Homo sapiens, UniProt P15336); assay: In vivo kinase assay, ATF2-GAL4 fusion in HLR cells; format: cell-based; conditions: 40 hours after transfection
T1 construct: host or cells: HLR cell line (5x GAL4 element-luciferase reporter)
Experimental: For in vivo kinase assay, activation domains of CREB or ATF2 transcription factors fused with the yeast GAL4 DNA binding domain (1-147 Amino Acids) constructs are used (Stratagene, PathDetect In Vivo Signal Transduction Pathway trans-reporting Systems). The HLR cell line that contains a 5× GAL4 DNA binding element and TATA box driving luciferase reporter is used per manufacturer's protocol (Stratagene). 10^4 HLR cells are split into each well of 96 well tissue culture plates. After 16 hours, cells are transfected with 100 ng of Creb-GAL4 or ATF2-GAL4 fusion constructs, 30 ng of Renilla luciferase control plasmid together with 100 ng of pCMVSPORT6, pCMVSPORT-CREAP1, pFC-PKA or pFC-MEKK (Stratagene) activator plasmids respectively. Transfection is done with Fugene6 reagent (Roche Molecular Biochemicals, Basel, Switzerland) according to the manufacturers manual. Forty hours after transfection, a Dual-Glo Luciferase assay (Promega) is conducted using the manufacturer's protocol.
As CREAP1 strongly activates CRE promoter transcription, we next investigated whether CREAP1 works through the CREB pathway. […]

[2] = system: Interleukin-8 promoter; assay: IL-8 promoter luciferase reporter co-transfection assay with the CREAP gene family; format: cell-based, human; conditions: cotransfection, relative to empty pCMV-SPORT6 vector
Source text: The entire amino acid sequence for CREAP1 was used in a BLASTP search of a public NCBI database. Initially two public domain cDNAs (XM—117201 and FLJ00364) were identified that have significant homology to the CREAP1 coding region. The nucleotide sequence of XM—117201 was used in a BLASTN search (Altschul S. F. et al., Nucleic Acids Res. 25:3389-3402 (1997)) of a proprietary cDNA library EST database and 4 clones were identified that represent XM—117201 public sequence. All 4 clones were functionally tested upon co-transfection with the CRE-Luc and IL-8p-Luc reporters initially found to be induced by CREAP using methods similar to those disclosed above. Briefly, trypsinized HeLa cells are resuspended in complete growth media at 6×10^4 cells/ml and distributed into white 96-well plates (Costar) in the volume of 100 μl per well. Cells are left overnight in a tissue culture incubator at 37° C. and 5% CO2. pGL3B-IL-8p-Luc reporter plasmid or CRE-Luc reporter (BD Biosciences) as well as tested cDNAs are resuspended in OptiMEM I low serum media (GIBCO BRL) at 25 ng/ml. The reporter plasmids and cDNAs are then distributed into 96-well clean PCR plates (ABGene) at 4 μl/well and 3 μl/well respectively. […]
The activity of firefly and Renilla luciferase is measured using the DualGlo Luciferase Assay System (Promega) following the protocol supplied by the manufacturer. Briefly, 115 μl of freshly reconstituted luciferase reagent is added to each well of the 96-well tissue culture plates with a Multidrop 384 and, after 15 minutes incubation, luminescence is read on a LUMINOSKAN Ascent Luminometer (Thermo Labsystems) with a 400 msec integration time. Subsequently, 115 μl of Stop-and-Glo reagent is added to each well of the 96-well tissue culture and, after 15 minutes incubation, luminescence is read on a LUMINOSKAN Ascent Luminometer with a 200 msec integration time. The activity of each tested cDNA is measured as a ratio of the corresponding firefly and Renilla luciferase activities. […]

T1 sequence (P15336 with tags, fused parts or gaps limits assumed): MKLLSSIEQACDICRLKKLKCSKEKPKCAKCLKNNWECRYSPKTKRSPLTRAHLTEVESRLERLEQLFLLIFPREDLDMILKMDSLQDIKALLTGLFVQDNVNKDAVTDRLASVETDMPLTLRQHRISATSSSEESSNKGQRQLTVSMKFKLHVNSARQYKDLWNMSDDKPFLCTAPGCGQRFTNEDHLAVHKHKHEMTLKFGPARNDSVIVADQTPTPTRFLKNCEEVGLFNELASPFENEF

B1: CREAP1: human CRE activating protein 1, 650 amino acids, SEQ ID NO 2; expressed from pCMVSPORT-CREAP1 (protein)
chain: MATSNNPRKFSEKIALHNQKQAEETAAFEEVMKDLSLTRAARLQLQKSQYLQLGPSRGQYYGGSLPNVNQIGSGTMDLPFQPSGFLGEALAAAPVSLTPFQSSGLDTSRTTRHHGLVDRVYRERGRLGSPHRRPLSVDKHGRQADSCPYGTMYLSPPADTSWRRTNSDSALHQSTMTPTQPESFSSGSQDVHQKRVLLLTVPGMEETTSEADKNLSKQAWDTKKTGSRPKSCEVPGINIFPSADQENTTALIPATHNTGGSLPDLTNIHFPSPLPTPLDPEEPTFPALSSSSSTGNLAANLTHLGIGGAGQGMSTPGSSPQHRPAGVSPLSLSTEARRQQASPTLSPLSPITQAVAMDALSLEQQLPYAFFTQAGSQQPPPQPQPPPPPPPASQQPPPPPPPQAPVRLPPGGPLLPSASLTRGPQPPPLAVTVPSSLPQSPPENPGQPSMGIDIASAPALQQYRTSAGSPANQSPTSPVSNQGFSPGSSPQHTSTLGSVFGDAYYEQQMAARQANALSHQLEQFNMMENAISSSSLYSPGSTLNYSQAAMMGLTGSHGSLPDSQQLGYASHSGIPNIILTVTGESPPSLSKELTSSLAGVGDVSFDSDSQFPLDELKIDPLTLDGLHMLNDPDMVLADPATEDTFRMDRL
modifications: human
activation of the ATF2-GAL4 fusion molecule [1]: unable to activate | IL-8: level of expression of luciferase relative to empty vector [2]: 175.8571
